The target of experiment [1] is aεFab^1–IgE-Fc complex (one aεFab bound to IgE-Fc) (UniProt P01854). The experiment can be described thus: SPR.
In experiment [2] the target is Fcε3-4 sub-fragment of IgE-Fc (human). The experiment in a line: ITC.

B1: anti-ε-chain Fab (aεFab), anti-human IgE-Fc antibody in human IgG1 Fab format (Fab, V domains shown)
VH: QVQLQQSGPGLVKPSQTLSLTCGISGDSVSSNSAAWNWLRQSPSRGLEWLGRTYYRSKWYNDYAVSMKSRITINPDTSRNQFSLQLNSVTPEDTAVYYCARDGEISYDYYYYGMDVWGRGTLVTVSS
VL: QSVLTQPPSASGTPGQRVTISCSGSSSNIGNNGVNWYQQVPGKPPKLLIYYDDLLPSGVSDRFSGSKSGTSASLAISGLQSEDEADYYCEAWDDSLDGVVFGGGTKLTVL
For B1, the Kd in experiment [1] worked out at 1400 nM. The Kd2 (second site, sequential two-site fit) in experiment [2] is 0.98 µM.

The record behind these values is paper PMC3977038.
